Data reported in US11723946B2, “Methods for regulating transcription of multiple genes and expression of multiple targets” (CHINA MEDICAL UNIVERSITY, priority 2014, dated 2023).
Read-outs that look alike come from different tables or passages of the source.

Key:
[1] = system: Column (IL-1β and TNF signaling pathway genes); conditions: Down-regulated, 2.5 mmol/kg daily, 7 days
Protocol: (§1) The wild-type FVB mice were divided into the control group and the experimental group, wherein the mice in the experimental group were daily administered with 20 μl peptide-containing solution that contains 2.5 mmol/kg of the present peptide for 7 days. Moreover, the mice in the control group were daily administrated with 20 μl PBS solution for 7 days.
(§2) After the daily administration, the tissues of column, muscle, fat pad, liver and kidney were collected for analyzing the expression of multiple targets by system biology analysis. Herein, the altered expressions of the targets in the genome were determined by using DNA microarray which is a well-established tool for systematic biology analysis. Furthermore, the results of the DNA microarray were further categorized and analyzed by bioinformatics analysis to determine the effect and affected signaling pathways of the present polypeptide. Therefore, it can determine the downstream targets of the present polypeptide comprising the amino acid sequence of SEQ ID No. 1 by the mechanism investigation through microarray analysis and gene expression profile. The detail steps including:
(§3) (1) RNA preparation: The total RNA was extracted from the tissue by using RNeasy Mini Kit (Qiagen, Valencia, Calif., USA). The amount of the extracted total RNA was measured by Beckman DU800 spectrophotometer (Beckman Coulter, Fullerton, Calif., USA). In the next step, the quality of the RNA sample with A260/A280 ratio more than 1.8 was further evaluated by Agilent 2100 bioanalyzer (Agilent Technologies, Santa Clara, Calif., USA). When with the RNA integrity number of the sample is more than 8.0, it would be analyzed by the following microarray analysis.
(§4) (2) DNA microarray analysis: The procedure of DNA microarray analysis was conducted according to the reference (Cheng, 2007). Briefly, 5 μg of total RNA was amplified by in vitro transcription using MessageAmp™ aRNA kit (Ambion). In the following, the fluorescence dye, Cy5, was chemically labeled on the amplified RNA (aRNA). After the labeling, the fluorescence labeled aRNA was hybridized with Whole Genome OneArray™ in hybridization buffer (Phalanx Biotech Group, Taiwan) on cover slide. Following the hybridization reaction at 50° C. over-night, the non-specific binding on the chip was washed by three washing steps. The washed chip was dried by centrifugation and was scanned by Axon 4000 scanner (Molecular Devices, Sunnyvale, Calif., USA) to measure the fluorescence signals. The fluorescence intensity of Cy5 on each spots was further analyzed by genepix 4.1 (Molecular Devices). First, the signals of each spot were adjusted by deducting the intensity of background. In the next step, the spots including the probes of internal controls or the spots with the signal-to-noise ratios less than […] would be removed. The qualified spots were normalized by limma package which is belonged to R console (Smyth, 2005).
(§5) (3). Analysis of the functional mechanism and affected signaling pathways by using bioinformatics software: The altered downstream targets, functional mechanisms, affected signaling pathways and the disease relevance were investigated by using the bioinformatics software such as Medical Subject Headings (MeSH, http://www.nlm.nih.gov/mesh/meshhome.html) and BiblioSphere Pathway Edition.

[2] = system: Liver (Fatty liver genes); conditions: Down-regulated, 2.5 mmol/kg daily, 7 days
Protocol: as §1, §2, §3, §4, §5

[3] = system: Kidney (Diabetes; Nephrosis genes); conditions: Down-regulated, 2.5 mmol/kg daily, 7 days
Protocol: as §1, §2, §3, §4, §5

[4] = Serological and biochemical analysis in NOD mice; type: in vivo; conditions: 20 weeks; for Creatinine in serum: control 0.70 ± 0.05; for BUN: control 40.50 ± 4.54
Protocol: 23 mice were divided into four groups with different administrations for 20 weeks, wherein 6 mice of the group 1 were control mice that were daily orally administrated with 20 μl of PBS. 6 mice of the group 2 were daily orally administrated with 20 μl of 0.01 umol/kg solution that contained the present polypeptide comprising the amino acid sequence of SEQ ID No. 1. 6 mice of the group 3 were daily orally administered with 20 μl of 0.1 umol/kg solution that contained the present polypeptide comprising the amino acid sequence of SEQ ID No. 1. 5 mice of the group 4 were daily orally administrated with 20 μl of 1 umol/kg solution that contained the present polypeptide comprising the amino acid sequence of SEQ ID No. 1.
During the administration period, the survival rate, incidence of diabetes and diabetes-induced retinopathy in the each group were measured and shown in table 5. After the administration, the blood samples were collected for serological and biochemical analysis.

NF-κB = test: Whole animal bioluminescent imaging, LPS-induced NF-κB/luc transgenic mice; type: in vivo
Text: Mice: The NF-κB/luc transgenic mice bearing the luciferase transgene driven by two copies of the NF-kappaB regulatory elements were mated with wild-type FVB mice to generate the hybrid NF-κB/luc transgenic offspring for the experiments. Whole animal bioluminescent imaging: 15 mice with age of 6˜8 weeks were randomly divided into three groups. The group 1 was the blank group; the group 2 was control group; and the group 3 was experimental group. The mice of the group 2 and the group 3 were administration with 100 ul of […] lipopolysaccharide (LSP) solution to induce the inflammation in the mice by intraperitoneal injection (IP injection). As the blank control, the mice of group 1 were administered with 100 μl of PBS by IP injection. After the LPS-injection for 5 minutes, the mice of the group 3 were further injected with 20 μl solution that contains 0.5 mg/Kg of the present polypeptide by IP injection. In contrast, the mice of the group 2 and the […] were injected with 20 μul of water. […] For in vivo imaging mice were anesthetized with isoflurane and injected intraperitoneally with 150 mg/kg luciferin. After 10 minutes, the mice were placed face up and imaged for 1 min with the camera set at the highest sensitivity by IVIS Imaging System-200 (Series Xenogen Hopkinton, Mass.). The photons emitted from the tissues were quantified by Living Images software (Xenogen, Hopkinton, Mass.) and were shown in FIG. 4A. In the FIG. 4A, the Y-axis shown the signal strength (photons/sec) that stands for total photons diffused from the mice.

[5] = Group 2: 0.01 umol/kg daily oral
[6] = Group 3: 0.1 umol/kg daily oral

B1: present polypeptide: polypeptide comprising the amino acid sequence of SEQ ID No. 1; made by peptide synthesis, recombinant expression or extraction from Momordica charantia (peptide, listed as Artificial synthsis)
chain: SRCQGKSSWPQLVGSTGAAAKAWIERENPRVRAVIIKVGSGATKDFRCDRVRVWVTERGIVARPPTIG
Fold, Ccl2 ([1]; IL-1β signaling pathway): 1.71 folds | Fold, Cdh2 ([1]; IL-1β signaling pathway): 1.73 folds | Fold, Icam1 ([1]; IL-1β signaling pathway): 2.27 folds | Fold, Pecam1 ([1]; IL-1β signaling pathway): 1.99 folds | Fold, Tnfrsf11b ([1]; IL-1β signaling pathway): 2.74 folds | Fold, ADIPOQ ([1]; TNF signaling pathway): 1.78 folds | Fold, Bcl3 ([1]; TNF signaling pathway): 1.72 folds | Fold, CD40 ([1]; TNF signaling pathway): 1.79 folds | Fold, Casp3 ([1]; TNF signaling pathway): 1.71 folds | Fold, Ikbke ([1]; TNF signaling pathway): 1.95 folds | Fold, Irs1 ([1]; TNF signaling pathway): 1.73 folds | Fold, Ltf ([1]; TNF signaling pathway): 1.99 folds | Fold, Mapk3 ([1]; TNF signaling pathway): 2.32 folds | Fold, Mapk9 ([1]; TNF signaling pathway): 1.53 folds | Fold, Rxra ([1]; TNF signaling pathway): 1.89 folds | Fold, Socs1 ([1]; TNF signaling pathway): 2.46 folds | Fold, Tnfrsf11b ([1]; TNF signaling pathway): 2.74 folds | Fold, Aldh2 [2]: 2.5 folds | Fold, Ctla4 [2]: 1.56 folds | Fold, Cyp17a1 [2]: 1.52 folds | Fold, Mmp2 [2]: 2.11 folds | Fold, Mttp [2]: 3.53 folds | Fold, Sod2 [2]: 1.71 folds | Fold, Apoc3 [3]: 2.5 folds | Fold, Ctla4 [3]: 1.65 folds | Fold, Fabp2 [3]: 1.62 folds | Fold, Fgb [3]: 1.91 folds | Fold, Hp [3]: 2.35 folds | Creatinine in serum [4, 5]: 0.64 ± 0.12 mg/dL | BUN [4, 5]: 37.38 ± 2.77 mg/dL | Creatinine in serum [4, 6]: 0.69 ± 0.06 mg/dL | BUN [4, 6]: 38.50 ± 4.69 mg/dL | Creatinine in serum ([4]; Group 4: 1 umol/kg daily oral): 0.69 ± 0.06 mg/dL | BUN ([4]; Group 4: 1 umol/kg daily oral): 35.88 ± 6.33 mg/dL | suppression of luminescent intensity (NF-κB; group 3 (LPS + 0.5 mg/Kg polypeptide IP)): about 38% | average of luciferin value (NF-κB; group 3: LPS + 0.5 mg/Kg polypeptide IP, 4 hours after injection): 19.82×10^7 photons/sec
